Positions count from the first letter of the chain named.
B1: Escherichia coli SufS R92A (enzyme, E. coli)
chain: MIFSVDKVRADFPVLSREVNGLPLAYLDSAASAQKPSQVIDAEAEFYRHGYAAVHRGIHTLSAQATEKMENVRKRASLFINARSAEELVFVAGTTEGINLVANSWGNSNVRAGDNIIISQMEHHANIVPWQMLCARVGAELRVIPLNPDGTLQLETLPTLFDEKTRLLAITHVSNVLGTENPLAEMITLAHQHGAKVLVDGAQAVMHHPVDVQALDCDFYVFSGHKLYGPTGIGILYVKEALLQEMPPWEGGGSMIATVSLSEGTTWTKAPWRFEAGTPNTGGIIGLGAALEYVSALGLNNIAEYEQNLMHYALSQLESVPDLTLYGPQNRLGVIAFNLGKHHAYDVGSFLDNYGIAVRTGHHCAMPLMAYYNVPAMCRASLAMYNTHEEVDRLVTGLQRIHRLLG
modifications: persulfide on C364 (as isolated; crystallographic occupancy 0.84); PLP, internal aldimine with K226
B2: Escherichia coli SufS E96A (enzyme, E. coli)
chain: B1 chain with A92R, E96A
modifications: persulfide on C364 (as isolated; crystallographic occupancy 0.80); PLP, internal aldimine with K226
B3: Escherichia coli SufS E250A (enzyme, E. coli)
chain: B1 chain with A92R, E250A
modifications: persulfide on C364 (as isolated; crystallographic occupancy 0.63); PLP, internal aldimine with K226
B4: Escherichia coli SufS H55A (enzyme, E. coli)
chain: B1 chain with H55A, A92R
modifications: persulfide on C364 (as isolated; crystallographic occupancy 0.66); PLP, internal aldimine with K226

Tests used:
[1] = molecular target: the molecule itself; test: SEC
[2] = molecular target: the molecule itself; test: crystal structure

Protein	stoichiometry N [1]	binding result [2]
B1	2	
B2	2	
B3	2	
B4		binds

— paper PMC6676893 (Biochemistry, 2019)
